Test results from patent EP2974737A1 (Ablynx N.V., dated 2016).
Residue numbers refer to the chain shown, from its start.

B1: SEQ ID NO: 83 (VHH)
VHH: EVQLVESGGGLVQPGGSLRLSCAASRSIGRLDRMGWYRHRPGEPRELVATITGGSSINYGDSVKGRFTISIDNSKNTVYLQMNSLRPEDAAVYYCNFNKYVTSRDTWGQGTLVTVSS
B2: SEQ ID NO: 87 (VHH)
VHH: B1 VHH with L11S, A90T, S116G, S117G
B3: SEQ ID NO: 84 (VHH)
VHH: B1 VHH with A90T, S116G
B4: SEQ ID NO: 88 (VHH)
VHH: B1 VHH with L11S, A90T, T114Q
B5: SEQ ID NO: 86 (VHH)
VHH: B1 VHH with L11S, A90T, T114Q
B6: SEQ ID NO: 89 (VHH)
VHH: B1 VHH with L11S, P14A, A90T, T114Q, S116G, S117G
B7: SEQ ID NO: 85 (VHH)
VHH: B1 VHH with L11S, A90T, T114Q, S116G, S117G

These binders were tested against T1, purified interference factor(s) from Donor B (human) (assay: SPR, interference factor immobilized; % of Fig. 9 reference).
T1 construct: the text names the donors 8, 19 and 30; also called interference in serum from Donor B
B1 was tested, and the “interference binding, % of Reference Sequence” value (“interference binding, %” below) was 73%.
B2 was tested, and the “interference binding, %” value was 5%.
In the case of B3, the “interference binding, %” value is reported as 50%.
For B4, the “interference binding, %” value was 5%.
With B5 the “interference binding, %” value was 6%.
B6 was tested, and the “interference binding, %” value was 5%.
In the case of B7, the “interference binding, %” value is reported as 5%.

The binders below were run against T2, purified interference factor(s) from Donor C (human) in the same assay as above.
T2 construct: the text names the donors 8, 19 and 30; also called interference in serum from Donor C
For B1, the “interference binding, %” value was 61%.
For B2, the “interference binding, %” value was 39%.
For B3, the “interference binding, %” value was 83%.
With B4 the “interference binding, %” value was 11%.
With B5 the “interference binding, %” value was 86%.
In the case of B6, the “interference binding, %” value is reported as 17%.
In the case of B7, the “interference binding, %” value is reported as 42%.

These binders were tested against T3, purified interference factor(s) from Donor A (human) in the same assay as above.
T3 construct: also called interference in serum from Donor A
For B1, the “interference binding, %” value was 56%.
For B2, the “interference binding, %” value was 51%.
In the case of B3, the “interference binding, %” value is reported as 84%.
In the case of B4, the “interference binding, %” value is reported as 1%.
For B5, the “interference binding, %” value was 76%.
With B6 the “interference binding, %” value was 14%.
In the case of B7, the “interference binding, %” value is reported as 46%.
